Test: yeast display, Sf9 membrane polyspecificity reagent, FACS + sequencing; frameworks hold sequencing errors
In short: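 Using colony PCR, genes from sorted yeast display clones were amplified, then sequenced on MiSeq at 2 × 250 and filtered by CDR length. The clones had been stained with 10% biotinylated, detergent-solubilized Sf9 membrane reagent for 1 hour at 4 °C and sorted by FACS into low and high (top ~1%) gates on anti-HA and streptavidin fluorescence. Polyreactivity labels come from the gate of origin.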

QVQLVESGGGLVQAGGSLRLSCAASGNIFSDYTMGWYRQAPGKERELVAAISGDGGTTYYADSVKGRFTISRDNAKNTVYLQMNSLKPEDTAVYYCAADGYYDAYDQFFIVYYEYDYWGQGTQVTVSS
polyreactivity (PSR sort gate): low polyreactivity

QVQLVESGGGLVQAGGSLRLSCAASGNIFSSNAMGWYRQAPGKERELVAAISASGGNTYYSDSVKGRFTISRDNAKNTVYLQMNSLKPEDTAFYYCNAYRGGYLRRGYYYWGQGTQVTVSS
polyreactivity (PSR sort gate): high polyreactivity

QVQLVESGGGLVQAGGSLRLSCAASGNIFSSNDMGWYRQAPGKQRELVAANTRSGGSTYYADSVKGRFTISRDNAKNTLYIQMNSHTPEDTAVYDGAGRPYPRNSWGYDDWGQGTQVTVSS
polyreactivity (PSR sort gate): high polyreactivity

QVQLVESGGGLVQAGGSLRLSCAASGNIFSSYVMGWYRHAPGKERELVAAISSRGGSTYYADSVKGRFTISRDNAKNTVYLQMNSLKPEDTAVYYCAARYLSWYDWGQGTQVTVSS
polyreactivity (PSR sort gate): high polyreactivity

QVQLVESGGGLVQAGGSLRLSCAASGNIFSWYAMGWYRQAPGKERELVAAITSGGITYYADSVKGRFTISRDNAKNTVYLQMNSLKPEDTAVYYCNIDVGFTRPLYYWGQGTQVTVSS
polyreactivity (PSR sort gate): low polyreactivity

QVQLVESGGGLVQAGGSLRLSCAASGNIFTGYMGWYRQAPGKERELVAAISRSGGRTHYADSVKGRFTISRDNAKNTVYLQMNSLKPEDTAVYYCNADVRRYTAFTKDAYAFNYWGQGTQVTVSS
polyreactivity (PSR sort gate): high polyreactivity

QVQLVESGGGLVQAGGSLRLSCAASGNIFTLNTSGCYRQAPGKERELVARITSGDRKYYADSVKGRFTISRDNAKNTVYLQMNSLKPEDTAVYYCAARRPAYYSFWVTGYNYWGQGTQVTVSS
polyreactivity (PSR sort gate): high polyreactivity

QVQLVESGGGLVQAGGSLRLSCAASGNIFTNNAMGWYRQAPGKEREFVAAITRSGGSTSYADSVKGRFTISRDNAKNTVYLQMISLNPEDTAVYYCAATGYRYRRIYGFDYWGQGTQVTVSS
polyreactivity (PSR sort gate): high polyreactivity

QVQLVESGGGLVQAGGSLRLSCAASGNIFTRNAMGWYRQAPGKVRELVASITRGGSTYADSVKGLFTISRDNAKNTVYLQMNSLKPEDTAVYYCAASCYYSSHMDYWGQGTQVTVSS
polyreactivity (PSR sort gate): high polyreactivity

QVQLVESGGGLVQAGGSLRLSCAASGNIFVFYVMGWYRQAPGKERELVASISSTGNTYYADSVKGRFTISRENAMNTVYLQLNRLKPEDTAVYYCAADSHQNVSGWLRWPRMDYWGQGTQVTVSA
polyreactivity (PSR sort gate): low polyreactivity

QVQLVESGGGLVQAGGSLRLSCAASGNIFVLNPMGWYRQATCKETELVAAISRSGVRTYYADSVKGRFTISRDNAKNTVYLQMNSLKPEDTAVYYCAAVYKRLQPYGYWGQGTQETVSS
polyreactivity (PSR sort gate): high polyreactivity

QVQLVESGGGLVQAGGSLRLSCAASGNIFVWNDMGWYRQAPGKERELVAAISLSGSSTYYADSVKGRFTISRDNAKNTVYLQMNSLKPEDTAVYYCATTRRVPGEYWGQGTQVTVSS
polyreactivity (PSR sort gate): high polyreactivity

QVQLVESGGGLVQAGGSLRLSCAASGNIFWGNAMGWYRQAPGKERELVAAITSIDSSTYYADSVKGRFTISRDNAKNTVYLQMNSLKPEDTAVYYCAADGDWYGYIWQSDDGYDSWGQGTQVTVSS
polyreactivity (PSR sort gate): low polyreactivity

QVQLVESGGGLVQAGGSLRLSCAASGNIFWRNAMGWYRQAPGKERELVAAISRRAVSTYYADSVKGRFTISRDNAKNTVYLQMNSLKPEDTAVYYCAARLGGENDYWGQGTQVTVSS
polyreactivity (PSR sort gate): high polyreactivity

QVQLVESGGGLVQAGGSLRLSCAASGNIFYANAMGWYRQAPGKERELVAGITVRGGRTYYADSVKGRFTISRDNAKNTVYLQMNSLKPEDNAVYYCAVRSRGSRYDYWGQGTQVNVSS
polyreactivity (PSR sort gate): high polyreactivity

QVQLVESGGGLVQAGGSLRLSCAASGNIFYAYDMGWYRQAPGKERELVAAITNGDSTDYADSVKGRFTISRDNAKNTVYLQMNSLKPEDTAVYYCNADYLPEPWALGGSQYDYWGQGTQVTVSS
polyreactivity (PSR sort gate): low polyreactivity

QVQLVESGGGLVQAGGSLRLSCAASGNIFYGYAMGWYRQAPGKERELVAAITSDGITYYADSVKGRFTISRDNAKNTVYLQMNSLKPEDTAVYYCNVTQLYEYYKYYYWGQGTQVTVSS
polyreactivity (PSR sort gate): low polyreactivity

QVQLVESGGGLVQAGGSLRLSCAASGNIFYRKARGWYRQAPGKERELVAAITSGGGSTYYADSVKGRFTISRDNAKNTVYLQMNSLKPVDTAVYYCNAYAWNYFGIKVTYDYWGQGTQVTVSS
polyreactivity (PSR sort gate): high polyreactivity

QVQLVESGGGLVQAGGSLRLSCAASGNIFYVYVMGWYRQAPGKERELVASITSGASTYYADSVKGRFTISRDNAKNTVYFQMNSLKPEDTAVYYCAAEALGGAGDYSTLYIYDYWGQGTQVTVSS
polyreactivity (PSR sort gate): low polyreactivity

QVQLVESGGGLVQAGGSLRLSCAASGNIIDANAIGWYRPAPGKERQLVAAITSSGGSTYYADSVKGRFTISRDNAKNTVYLQMNSLKPEDTAVYYCAKSHAIYYWWDESWGQGTQVTVSS
polyreactivity (PSR sort gate): low polyreactivity

QVQLVESGGGLVQAGGSLRLSCAASGNIISIYAMGWYRQAPGKEREFVASNDWSVASTYYADSVKGRFTISRDNAKNTVYLQMNSLKPEDTAVYYCAAELFGLKYGYYLSYDYWGQGTQVTVSS
polyreactivity (PSR sort gate): high polyreactivity

QVQLVESGGGLVQAGGSLRLSCAASGNILFSYAMGWYRQAPRKERELVAAISSSGGSTYYADSVKGRFTISRDNAKNNVYLQMNSLKPEDTAVYYCARYSFYKYDYWGQGTQVTVSS
polyreactivity (PSR sort gate): high polyreactivity

QVQLVESGGGLVQAGGSLRLSCAASGNILSVYTLGWYRQAPGKERELVANITYSGDRTYADSVQVRFTISRDNAKTTVYLQMKILKPEDTAVYYCSKDGYPTGGPYWGGMDYWGQGTQVTVSS
polyreactivity (PSR sort gate): low polyreactivity

QVQLVESGGGLVQAGGSLRLSCAASGNNFSYNAMGWYRQAPGKERELVAAITTSSGRTYYADSVKGRFTISRDNAKNTVYLQMNSLKPEDTAVYFCNAVQRYQIGYWGQGTQVTVSS
polyreactivity (PSR sort gate): high polyreactivity

QVQLVESGGGLVQAGGSLRLSCAASGNNFYVNVMGSYRQAPGKEMEFVAAISTRGVSTSYADSVKGRFTISRDNAKYTVYLQMNSLKPEDTAVYYCAASFRRPQPKGTTYGYLGQGTQVTVSS
polyreactivity (PSR sort gate): high polyreactivity

QVQLVESGGGLVQAGGSLRLSCAASGNTFDYYAMGWYRQAPGKERELVAAIDSGTTTYYADSVKGRFTISRDNAKNTVYLQMNSLKPEDTAVYYCAAEYAYVPGWYEYWGQGTQVTVSS
polyreactivity (PSR sort gate): high polyreactivity

QVQLVESGGGLVQAGGSLRLSCAASGNTFDYYTMGWYRQAPGKERELVAAISWNGGSTYYADSVKGRFTISRDNAKTTVYLQMNSLKPEDSAVYYCAVLYRSEYDWGQGTQVTVSS
polyreactivity (PSR sort gate): low polyreactivity

QVQLVESGGGLVQAGGSLRLSCAASGNTFFPYTMGWYRQAPGKERELVAAITWSGVSTYYADSVKGRFTISRDNAKNTVYLQMNSLKPEDTAVYYCAARGPVYVSYPRQYGYWGQGTQVTVSS
polyreactivity (PSR sort gate): high polyreactivity

QVQLVESGGGLVQAGGSLRLSCAASGNTFGFYAMGWYRQAPGKERELVAGITSGDSTYYADSVKGRFTISRDNAKNTVYLQMNSLKPEDTAVYYCATAPYVTSRRYGPYEYWGQGTQGTVSS
polyreactivity (PSR sort gate): low polyreactivity

QVQLVESGGGLVQAGGSLRLSCAASGNTFGKYAMGWSRQAPGKERELLATITRRGGSTYYADSVKGRFTISRDNAKNTVYLQMNSLNPEDTAVYYCAAVVRYRQGVTRSIMDYWGQGTQVTVSS
polyreactivity (PSR sort gate): high polyreactivity

QVQLVESGGGLVQAGGSLRLSCAASGNTFGNYAMGWYRQAPGKERELVAAITTIGGSTYYADSVKGRFTISRDNAKNTVYLQMNRLKPEDTAVYYCAKVENRYPVGKYDYWGQGTQVTVSS
polyreactivity (PSR sort gate): low polyreactivity

QVQLVESGGGLVQAGGSLRLSCAASGNTFGYNAMGWYRQAPGKERELVAAISSSGTRTYYADSVKGRFTISRDNAKNTVYLQMNSLKPEDTAVYYCNARSTRYKFGYWGQGTQVTVSS
polyreactivity (PSR sort gate): high polyreactivity

QVQLVESGGGLVQAGGSLRLSCAASGNTFISYAMGWYRQAPGKERELVAAITWSGGSTYYADSVKGRFTISRDNAKNTVYLQMNSLKPEDTAVYYCAKFTHNYYYWGQGTQVTVSS
polyreactivity (PSR sort gate): high polyreactivity

QVQLVESGGGLVQAGGSLRLSCAASGNTFKTNAMGWYRQAPGKERELVAAISSSGSTYYADSVKGRFTISRDNAKNTVYLQMNSLKPEDTAVYYCAVTYRRFYYWGQGTQVTVSS
polyreactivity (PSR sort gate): high polyreactivity

QVQLVESGGGLVQAGGSLRLSCAASGNTFNGYTMGWYRQATGKERELVAVISSYGGRTNYADSVKGRFTISRDNAKITLYLQLNSLKTEVTAVYYCAARSSRLPHIYGYWGQGTQVTVSS
polyreactivity (PSR sort gate): low polyreactivity

QVQLVESGGGLVQAGGSLRLSCAASGNTFNVYAMGWYRQAPGKERELVAAITLSGGSTYYADSVKGRFTISRDNAKNTVYLQMNSLKPEDTAVYYCNAEEVGTDYDYWGQGTQVTVSS
polyreactivity (PSR sort gate): low polyreactivity

QVQLVESGGGLVQAGGSLRLSCAASGNTFPLNAMGWYRQAPGKERDLVAGISRTGGSTYYADSVKGRFTISRDNAKNTVYLQMNSLKPEDTAVYYCAAQSRYWVVRMDYWGQGTQVTVSS
polyreactivity (PSR sort gate): high polyreactivity

QVQLVESGGGLVQAGGSLRLSCAASGNTFPVYAMGWYRQAPGKERELVAAINTSGGSTYYADSVKGRFTISRDNAKYTVYLQMNSLKPEDTAVYYCAADWSYYGDELYYWGQGTQVTVSS
polyreactivity (PSR sort gate): low polyreactivity

QVQLVESGGGLVQAGGSLRLSCAASGNTFPYYAMGWYRQAPGKEREYVATIDRGDGSTYYADSVKGRFTISRDNAKNTVYLQMNSVKPEDTAVYYCAKLRGAFIVPGRGYPIYYYWGQGTQVTVSS
polyreactivity (PSR sort gate): high polyreactivity

QVQLVESGGGLVQAGGSLRLSCAASGNTFRAYAMGWYRQAPGKERELVATITWSGGITDYADSVKGRFTISRDNAKNTVSLQMNSLKPEDTAVYDCAARSYRWWNFNYWGQGTQVTVSS
polyreactivity (PSR sort gate): high polyreactivity

QVQLVESGGGLVQAGGSLRLSCAASGNTFRFYTMGWYRQAPGKERELVAAINSSGRTNYADSVKGRFTISRDNAKNTVYLQMNSLIPEDTAVYYCAADQQRSIDAPYGYWGQGTQVTVSS
polyreactivity (PSR sort gate): low polyreactivity

QVQLVESGGGLVQAGGSLRLSCAASGNTFRFYTMGWYRQAPGKERELVAAINSSGRTNYADSVKGRFTISRDNAKNTVYLQMNSLKPEDTAVYYCAADYYQWSSFLGVYEYDYWGQGTQVTVSS
polyreactivity (PSR sort gate): low polyreactivity

QVQLVESGGGLVQAGGSLRLSCAASGNTFRIYTMGWYRQAPGKERELVATITRRGGSTYYADSVKGRFTISRDNAKNTVYLQMNSLKPEDTAVYYCAARVRGTGVYGGYNYWGQGTQVTVSS
polyreactivity (PSR sort gate): high polyreactivity
